# B1: 21-mer nicked 3'-8-oxoG opposite C (crystal) (mixed)
# DNA 1: GGATCCGTCGACCGCATCAGC
# DNA 2: GCTGATGCGG
# DNA 3: TCGACGGATCC
# modifications: 8-oxoG at 3' end of strand 2 (position 10, written G); 5'-phosphate on strand 3
# Biological target: dAPE1 C138A E96Q/D210N (crystallization) (human, UniProt P27695 44-318, E96Q;C138A;D210N;del1-43)
# Assay: X-ray crystallography; 5 mM CaCl2 in reservoir; Anisotropy: 50 mM HEPES pH 7.4, 100 mM KCl, 5% glycerol, 20 mM EDTA, 37 C, 10 nM DNA. Crystals: 7-14% PEG 20K, 100 mM sodium citrate pH 5.0, 15% glycerol, 5 mM
# Conditions: protein: recombinant; tags: untagged; nicked duplex, blunt ends; 8-oxoG opposite C (strand 1 position 12)
# dAPE1 C138A E96Q/D210N (crystallization), sequence (P27695 44-318 E96Q/C138A/D210N): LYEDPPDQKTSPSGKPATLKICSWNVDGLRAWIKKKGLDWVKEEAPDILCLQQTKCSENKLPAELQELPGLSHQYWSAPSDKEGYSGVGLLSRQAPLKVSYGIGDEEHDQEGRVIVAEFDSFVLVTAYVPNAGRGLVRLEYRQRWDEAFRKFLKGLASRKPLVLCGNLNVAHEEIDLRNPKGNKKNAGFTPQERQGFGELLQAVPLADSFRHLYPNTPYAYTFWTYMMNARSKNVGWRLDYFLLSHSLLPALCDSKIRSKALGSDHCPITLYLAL
binder,measurement,value
B1,binding result,binds
